Data published in the RNAGym collection of RNA variant scans (doi:10.1093/nar/gkz1192).

B1: CPEB3 Ribozyme (parent)
chain: UAACAGGGGGCCACAGCAGAAGCGUUCACGUCGCAGCCCCUGUCAGAUUCUGGUGAAUCUGCGAAUUCUGCUGUAUAUCUC

Variants of: B1
Test: self-cleavage, relative activity (ratio to wild type); higher = more cleavage; in vitro, sequencing
Summary of the method: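 CPEB3 self-cleaving ribozyme mutant libraries were made by rounds of error-prone PCR, barcoded, and transcribed in vitro with T7 RNA polymerase for 5 hours at 37°C. Cleavage occurred during transcription and a 15 min DNase I step before EDTA stop. RNAs were reverse transcribed with template switching and Illumina-sequenced, with DNA sequencing mapping barcodes to variants. Relative activity is the variant's cleaved/total read fraction divided by wild type's (minimum 5 reads), averaged across three batches.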

Variant | self-cleavage
C17U C68U | 0.51
C17U U48C | 0.31
C17U U48A | 0.24
A18C U66C | 0.21
G16C U67C | 0.42
A18C U67C | 0.18
C17G A57G | 0.51
C17U A65U | 0.55
A18G A28C | 0.38
A18G A28G | 0.33
A18G A28U | 0.5
G16U U31C | 0.19
G16U U67A | 0.19
G16U U67C | 0.09
C17A A45U | 0.22
C17A U78C | 0.21
C17U U51C | 0.56
C17U U51G | 0.74
G16C U51A | 0.11
G16C U51G | 0.52
C17A U41A | 0.1
C17U A20G | 0.45
C17U C71A | 0.15
C17A U72G | 0.16

Variant | self-cleavage
A18C G33A | 0.42
A18C G33U | 0.13
G16U | 0.42
A18C C34U | 0.22
C17A A18U | 0.11
C17A A18G | 0.48
C17G C79U | 0.27
A18C C68A | 0.18
C17A A47U | 0.44
C17A A47G | 0.28
G16U U43C | 0.15
G16U A28U | 0.26
G16U A28G | 0.18
C17U U78C | 0.63
C17U A47U | 0.33
C17U U58G | 0.15
C17U U58C | 0.17
C17U U25C | 0.25
C17U U25A | 0.27
C17G U41A | 0.25
C17G U41G | 0.08
A18C U72A | 0.16
A18C U72G | 0.12
A18C U72C | 0.46

Variant | self-cleavage
A18G A57G | 0.55
A18G A57C | 0.49
A18G A57U | 0.36
C17U A45G | 0.65
G16U U69C | 0.13
G16U U69A | 0.22
A18G A35C | 0.38
A18G A35U | 0.27
A18G A35G | 1.06
A18G A21C | 0.4
A18G A21G | 0.4
A18G A21U | 0.33
C17U A75U | 0.81
C17U A77G | 0.69
C17G C34G | 0.36
G16C U60C | 0.2
G16C U60A | 0.29
G16C U49C | 0.08
C17U U72C | 0.74
C17U U72G | 0.4
C17U U72A | 0.21
A18C U58A | 0.21
A18C U58C | 0.3
G16U A56G | 0.28

Variant | self-cleavage
A18G A47C | 0.12
A18G A47G | 0.66
A18G A47U | 0.44
C17U C40U | 0.21
G16C U43C | 0.21
A18G A56U | 0.35
A18G A56C | 0.25
A18G A56G | 0.55
C17G G53C | 0.45
G16C U78C | 0.22
C17A A35G | 0.49
C17G A65U | 0.19
C17G A65G | 0.25
A18C C40A | 0.34
C17U U54C | 0.66
A18C U80A | 0.54
A18C U80C | 0.54
A18C A56U | 0.14
A18C A56G | 0.17
A18C A35U | 0.16
A18C A35G | 1.03
G16C U54C | 0.46
C17A U49C | 0.19
G16C G52U | 0.48

Variant | self-cleavage
C17U U80C | 0.85
A18G A75G | 0.57
A18G A75U | 0.82
A18G A75C | 0.91
A18G C50U | 0.63
A18C A75G | 0.41
C17A U26A | 0.36
A18G A20G | 0.49
A18G A20U | 0.27
A18C U41A | 0.32
A18C U41G | 0.53
A18C U41C | 0.34
A18G C44U | 0.2
A18G C44G | 0.16
A18G C44A | 0.28
A18C U25C | 0.27
C17G G33A | 0.24
A18C U49C | 0.29
A18C U49G | 0.17
C17A A64G | 0.24
C17U C62A | 0.11
C17A U80C | 0.24
C17A U80G | 0.23
G16U G33C | 0.09

Variant | self-cleavage
G16U G33A | 0.32
C17U U69G | 0.25
C17U U69A | 0.4
C17U U69C | 0.21
C17U A18G | 0.23
A18C C79A | 0.9
A18C C50U | 0.51
A18C C50A | 0.12
A18C A64G | 0.38
A18C U74C | 0.58
A18C U74G | 0.31
C17A A28G | 0.22
C17U U67C | 0.22
A18G C27U | 0.42
A18G C27G | 0.41
C17A C62G | 0.17
C17U U60C | 0.21
C17U U60A | 0.23
C17G A47G | 0.28
C17U A35G | 1.26
G16C G24C | 0.2
A18C C27U | 0.21
C17G U51C | 0.6
G16U A18G | 0.29

Variant | self-cleavage
C17U U31C | 0.42
A18C A21G | 0.21
A18G C23A | 0.26
A18G C23U | 0.12
A18G C23G | 0.61
A18G C39U | 0.52
A18G C39G | 0.21
A18G C39A | 0.47
A18C U51C | 0.36
A18C U51A | 0.42
C17A U67C | 0.44
G16C U48G | 0.18
G16U U80A | 0.52
G16U U80C | 0.7
G16U U25A | 0.2
A18G C34U | 0.15
A18G C34G | 0.08
G16C U72A | 0.3
C17A A65U | 0.15
G16U G36A | 0.37
A18C C39A | 0.41
A18C C71A | 0.09
C17U G55A | 0.38
